The text below walks through data of patent publication US6846636B1, “Methods and compositions for HDL holoparticle uptake receptor” (American National Red Cross, priority 1998, dated 2005).

For assay [1], the system named is RA/Bt2cAMP-treated F9 cells. The assay can be described thus: DiI-HDL uptake by laser scanning confocal fluorescence microscopy. The assay is classed as cell-based, mouse. Conditions: DiI-HDL 1 μg/ml, 2-4 h at 37° C., LDL 40 μg/ml, RAP 1 μM. How it is done: Cells were plated into gelatin-coated wells of 8-well plastic chamber slides (Nalge Nunc, Naperville, Ill.) (4×10^4 cells/cm^2) and incubated at 37° C., 5% CO2 for 2 hours. The cells were washed with serum-free DMEM and incubated in serum-free DMEM containing ITS (insulin 5 μg/ml, transferrin 5 μg/ml, sodium selenite 5 ng/ml, Boehringer Mannheim, Germany), penicillin, and streptomycin for 18 hours at 37° C., 5% CO2. Prior to addition of DiI-HDL, the cells were incubated with serum-free DMEM containing unlabeled HDL3 (40 μg/ml) or RAP (1 μM) for 0.5 hour at 37° C., 5% CO2. DiI-HDL (1 μg/ml) in serum-free DMEM or in serum-free DMEM containing unlabeled HDL3 (40 μg/ml) or RAP (1 μM) was then incubated with the cells for 2-4 hours at 37° C., 5% CO2. The cells were washed three times with Dulbecco's phosphate buffered saline (dPBS), fixed in 3% formaldehyde in dPBS for 20 minutes at room temperature. […]
Cells were plated into gelatin-coated wells of plastic chamber slides (Nalge Nunc, Naperville, Ill.) (4×10^4 cells/cm^2) and incubated at 37° C., 5% CO2 for 2 h. […] The cells were washed with dPBS, fixed in 3% formaldehyde in dPBS for 20 min at 25° C. and analyzed using a BiORad MRC1024 laser scanning confocal microscope.

Assay [2] relates to RA/Bt2cAMP-treated F9 cells. The assay can be described thus: [125I]-HDL internalization and degradation assay. The assay is classed as cell-based, mouse. The settings on record: [125I]-HDL 2 μg/ml, 6.5 h at 37° C.; unlabeled HDL 80 μg/ml, RAP 1 μM, chloroquine 50 μM, anti-cubilin IgG 150 μg/ml. How it is done:
HDL internalization and degradation assays were performed in a manner similar to LDL and apolipoprotein J internalization and degradation assays described previously (Stefansson et al., 1995; Kounnas et al., 1995). ApoE-free HDL (HDL3) was labeled with [^125I]-iodine using the iodine monochloride method (Goldstein et al., 1983). RA/Bt2cAMP-treated and -untreated F9 cells were seeded onto gelatin-coated 3.83 cm^2 wells (Corning, Corning, N.Y.) at 1.5-1.75×10^5 cells/well and allowed to grow for 18 h at 37° C., 5% CO2. Prior to the addition of [^125I]-HDL, the cells were washed with serum-free DMEM and incubated in the assay medium (DMEM, 20 mM HEPES, ITS, penicillin/streptomycin, and 1.5% BSA) containing unlabeled HDL3 (80 μg/ml), RAP (1 μM), chloroquine (50 μM) (Sigma) or BSA (10 μM) and incubated for 0.5 hours at 37° C., 5% CO2. The medium was then removed and [^125I]-HDL3 (2 μg/ml) in serum-free medium or in serum-free medium containing unlabeled HDL3 (80 μg/ml), RAP (1 μM), chloroquine (50 μM) or BSA (10 μM) was added and incubated with the cells for 6.5 h at 37° C., 5% CO2. The conditioned culture medium was treated with trichloroacetic acid (final concentration 10%) and centrifuged at 10,000×g for 10 min. The amount of radioactivity present in the supernatant was taken to represent the amount of degraded HDL (Goldstein and Brown, 1974). […] The released cells were pelleted by centrifugation at 1,000×g for 15 min and the amount of radioactivity in the cell pellet measured.
HDL internalization and degradation assays were performed as described previously for LDL and apolipoprotein J (Hammad et al., 1997; Kounnas et al., 1995; Stefansson et al., 1995a). […] The amount of radioactivity in the supernatant was taken to represent the amount of degraded HDL (Goldstein and Brown, 1974). […] The released cells were pelleted by centrifugation at 1,000×g for 15 min and the amount of radioactivity in the cell pellet was measured and taken to represent the amount of internalized HDL.

B1: RAP: 39 kDa chaperone protein that inhibits ligand binding to LDLR family members; recombinant human RAP (protein, UniProt P30533 35-357, looked up)
Alpha-2-macroglobulin …: YSREKNQPKPSPKRESGEEFRMEKLNQLWEKAQRLHLPPVRLAELHADLKIQERDELAWKKLKLDGLDEDGEKEARLIRNLNVILAKYGLDGKKDARQVTSNSLSGTQEDGLDDPRLEKLWHKAKTSGKFSGEELDKLWREFLHHKEKVHEYNVLLETLSRTEEIHENVISPSDLSDIKGSVLHSRHTELKEKLRSINQGLDRLRRVSHQGYSTEAEFEEPRVIDLWDLAQSANLTDKELEAFREELKHFEAKIEKHNHYQKQLEIAHEKLRHAESVGDGERVSRSREKHALLEGRTKELGYTVKKHLQDLSGRISRARHNEL
With B1, the “uptake of DiI-HDL (cell staining)” value in assay [1] is “completely blocked”. For the same molecule, in assay [2], the “degradation of [125I]-HDL” value is “inhibited the endocytosis and degradation”; the “internalization (endocytosis) of [125I]-HDL” value is “inhibited the endocytosis and degradation”.
